Laboratory results: publication PMC12755392, “p62 sorts Lupus La and selected microRNAs into breast cancer-derived exosomes”

Molecular target: T1, La 1-408 (full-length Lupus La) (Homo sapiens, UniProt P05455 1-408)
T1 sequence: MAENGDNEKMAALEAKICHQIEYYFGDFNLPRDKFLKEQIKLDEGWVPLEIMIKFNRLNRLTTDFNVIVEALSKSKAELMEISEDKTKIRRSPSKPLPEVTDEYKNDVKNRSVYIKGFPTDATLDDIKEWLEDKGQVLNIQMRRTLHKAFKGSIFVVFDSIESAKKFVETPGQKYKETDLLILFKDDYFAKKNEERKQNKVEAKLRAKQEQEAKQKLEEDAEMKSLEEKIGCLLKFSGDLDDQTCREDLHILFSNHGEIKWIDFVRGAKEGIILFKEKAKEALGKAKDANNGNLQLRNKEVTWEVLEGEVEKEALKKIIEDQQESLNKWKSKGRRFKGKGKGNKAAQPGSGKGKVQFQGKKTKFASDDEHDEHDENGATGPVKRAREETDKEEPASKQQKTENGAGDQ
Experiment: EMSA; EMSA: 1 nM miRNA, 25 mM Tris-HCl pH 8.0, 100 mM KCl, 1.5 mM MgCl2, 1 mM DTT, 0.05% NP-40, 5% glycerol, 50 ug/ml heparin, 1 U/ul RiboLock; 30 C 30 min then 4 C 10 min; Hill fit
Details: protein: recombinant; tags: C-terminal Nluc-FLAG-His6; label: 5' IRD800; single strand

| Binder | Kd [nM] |
| --- | --- |
| UGGAGUGUGACAAUGGUGUUUG (ssRNA) [miR-122 (hsa-miR-122-5p?)] | 14.1 |
| UGAUAUGUUUGAUAUAUUAGGU (ssRNA) [miR-190] | 1150 |
